# Test results from article doi:10.1101/2020.09.10.291773 (bioRxiv, 2020).
# Biological target: T1, HY5-S36A-GFP (Arabidopsis, UniProt O24646 1-168, S36A)
# T1 sequence (looked up): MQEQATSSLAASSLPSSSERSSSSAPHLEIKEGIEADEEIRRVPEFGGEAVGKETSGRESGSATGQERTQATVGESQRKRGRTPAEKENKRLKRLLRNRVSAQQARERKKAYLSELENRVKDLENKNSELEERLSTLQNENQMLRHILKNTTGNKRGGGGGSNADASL
# Assay: co-IP
binder,measurement,value
"COP1 (CONSTITUTIVE PHOTOMORPHOGENIC1), endogenous (natural protein, Arabidopsis (endogenous in seedlings), UniProt P43254 1-675, looked up) MEEISTDPVVPAVKPDPRTSSVGEGANRHENDDGGSGGSEIGAPDLDKDLLCPICMQIIKDAFLTACGHSFCYMCIITHLRNKSDCPCCSQHLTNNQLYPNFLLDKLLKKTSARHVSKTASPLDQFREALQRGCDVSIKEVDNLLTLLAERKRKMEQEEAERNMQILLDFLHCLRKQKVDELNEVQTDLQYIKEDINAVERHRIDLYRARDRYSVKLRMLGDDPSTRNAWPHEKNQIGFNSNSLSIRGGNFVGNYQNKKVEGKAQGSSHGLPKKDALSGSDSQSLNQSTVSMARKKRIHAQFNDLQECYLQKRRQLADQPNSKQENDKSVVRREGYSNGLADFQSVLTTFTRYSRLRVIAEIRHGDIFHSANIVSSIEFDRDDELFATAGVSRCIKVFDFSSVVNEPADMQCPIVEMSTRSKLSCLSWNKHEKNHIASSDYEGIVTVWDVTTRQSLMEYEEHEKRAWSVDFSRTEPSMLVSGSDDCKVKVWCTRQEASVINIDMKANICCVKYNPGSSNYIAVGSADHHIHYYDLRNISQPLHVFSGHKKAVSYVKFLSNNELASASTDSTLRLWDVKDNLPVRTFRGHTNEKNFVGLTVNSEYLACGSETNEVYVYHKEITRPVTSHRFGSPDMDDAEEEAGSYFISAVCWKSDSPTMLTANSQGTIKVLVLAA",fold co-immunoprecipitated COP1 against the HY5-S36D-GFP line,4 times
